Experimental findings from patent US20180280532A1 are described below.

The target in the test is human Trop-2 (human) (UniProt P09758). Briefly: cell binding assay, cell line not named.
human Trop-2 (human), sequence (P09758 27-323): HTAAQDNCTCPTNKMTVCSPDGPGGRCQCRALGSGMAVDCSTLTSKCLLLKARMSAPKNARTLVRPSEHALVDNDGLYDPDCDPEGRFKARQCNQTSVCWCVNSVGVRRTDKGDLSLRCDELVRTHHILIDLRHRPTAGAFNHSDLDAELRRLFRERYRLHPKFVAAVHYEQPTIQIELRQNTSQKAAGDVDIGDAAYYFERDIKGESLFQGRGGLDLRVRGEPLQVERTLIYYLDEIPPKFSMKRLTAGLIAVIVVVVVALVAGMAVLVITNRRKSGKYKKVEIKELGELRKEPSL

As usually defined, the Kd is the free concentration of one partner at which half of the binding sites on the other are occupied at equilibrium, for simple one-to-one binding. A lower Kd goes with tighter binding. hRS7-CL2A-SN-38 (antibody): the Kd was 1.2 nM.
